The record followed here is the nanobody polyreactivity screen of Harvey et al. (2022).

A short description of the data set: yeast display, Sf9 membrane polyspecificity reagent, FACS + sequencing; frameworks hold sequencing errors. The gist of the method:
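A nanobody's polyreactivity label depends on the gate it was sorted from. Yeast display cells were stained with 10% biotinylated, detergent-solubilized Sf9 membrane reagent for 1 hour at 4 °C, enriched on streptavidin microbeads and sorted by FACS. The low and high (top ~1%) gates were set on anti-HA fluorescence for expression and streptavidin fluorescence for reagent binding.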
“QVQLVESGGGLVQAGGSLRLSCAASGFTFYYYAMGWYRQAPGKERELVAAISKSGGSTYYADSVKGRFTISRDNAKNTVYLQMNSLKPEDTAVYYCARDKGSSGKGHGYWGQGTQVTVSS”: the “polyreactivity (PSR sort gate)” value is recorded as “high polyreactivity”.

Take “QVQLVESGGGLVQAGGSLRLSCAASGFTFYYYAMGWYRQAPGKERELVAAISSGGRTNYADSVKGRFTISRDNAKNTVYLQMNSLKPEDTAVYYCAAQYRNYFPYRVVRQGVGYWGQGTQVTVSS”: the “polyreactivity (PSR sort gate)” value is given as “high polyreactivity”.

With “QVQLVESGGGLVQAGGSLRLSCAASGFTFYYYAMGWYRQAPGKERELVASISSRGGSTYYADSVKGRFTISRDNAKNTVYLQMNSLKPEDTAVYYCAARTRRYKFDYWGQGTQVTVSS”, the “polyreactivity (PSR sort gate)” value is recorded as “high polyreactivity”.

Take “QVQLVESGGGLVQAGGSLRLSCAASGFTFYYYTLGWYRQAPGKVRELVARITTRGTSTYYADSVKGRFRISRDTPKNTVYLPMNSLKPEDTAVYYCAAQVGRGYEVYAVYKYGYWGQGTQVTVSS”: the “polyreactivity (PSR sort gate)” value is “high polyreactivity”.

In the case of “QVQLVESGGGLVQAGGSLRLSCAASGFTFYYYTMGWYRQAPGKERELVAAITISGGSTYYADSVKGRFTISRDNAKNTVYLQMNSLKPEDSAVYYCNADYQWYLGGYDFWGQGTQVTVSS”, the “polyreactivity (PSR sort gate)” value was “high polyreactivity”.

On to “QVQLVESGGGLVQAGGSLRLSCAASGFTIARNTMGWYRPAPGKERELVAAISGGGSTNYADSVKGRFTISRDNAKYTVYLQMNSLKPEDTAVYYCNADSNSDNNDYDYWGQGTQVTVSS”, for which the “polyreactivity (PSR sort gate)” value is listed as “low polyreactivity”.

Consider “QVQLVESGGGLVQAGGSLRLSCAASGFTIDAYAMGWYRQAPGKERELVAAISDGGNTYYADSVKGRFTISRDNAKNTVYLQMNSLKPEDTAVYYCNVDWYSYWYYTYEKSSEWAMEYWGQGTQVTVSS”, for which the “polyreactivity (PSR sort gate)” value is “low polyreactivity”.

Consider “QVQLVESGGGLVQAGGSLRLSCAASGFTIFSYAMGWYRQAPGKERELVAAISRRGGSTYYADSVKGRFTISRDNAKNTVYLQMNSLKPEDTAVYYCAAGPRWHTNGWAYDYWGQGTQVTVSS”, for which the “polyreactivity (PSR sort gate)” value was “high polyreactivity”.

As to “QVQLVESGGGLVQAGGSLRLSCAASGFTIGANNMGWYRQAPGKERELLAAISASGGSTYYADSVKGRFTISRDNAKNTVYLQMNSLKPEDTAVYYCAARRYPGRTATYYSWGQGTQVTVSS”, the “polyreactivity (PSR sort gate)” value is “high polyreactivity”.

“QVQLVESGGGLVQAGGSLRLSCAASGFTIKYYAMGWYRQAPGKEREFVAAISSSGGRTYYADSVKVRFTISRDYAKNTVYLQMNSLKPEDTAVYYCAAAWGTYGYHYDYLGQGTQVTVSS”: the “polyreactivity (PSR sort gate)” value is “low polyreactivity”.

As for “QVQLVESGGGLVQAGGSLRLSCAASGFTIPTYAMVWYRQAPGKERELVAAITRGGSTYYADSVKGRFTISRDNAKYTVYLQMNSLKPEDTAVYYCAADDPWYEEDYWGQGTQVTVSS”, the “polyreactivity (PSR sort gate)” value was “low polyreactivity”.

On to “QVQLVESGGGLVQAGGSLRLSCAASGFTISPYAMGWYRQAPGKERELVAAITRRSGSTYDADSVKGRFTISRDNAKNTVYLQMNSLKPEDTAVYYCNAKFYTAVYSYSLFNYWGQGTQVTVSS”, for which the “polyreactivity (PSR sort gate)” value is “high polyreactivity”.

With “QVQLVESGGGLVQAGGSLRLSCAASGFTISRYNMGWYRQAPGKEREMVAAISGSGGSTYYADSVKGRFTISRDNAKNTVYLQMNSLKPEDTAVYYCNAVRNWYYTPWEMNYWGQGTQVTVSS”, the “polyreactivity (PSR sort gate)” value is listed as “high polyreactivity”.

Turning to “QVQLVESGGGLVQAGGSLRLSCAASGFTITAYAMGWYRQAPGKERELVAAISYSGGRTYYADSVKGRFTISRDIAKNTVYLQMNSLKTEDTAVYYCYAVLAHYQSLVYWGQGSQVTVSS”, the “polyreactivity (PSR sort gate)” value is reported as “high polyreactivity”.

With “QVQLVESGGGLVQAGGSLRLSCAASGFTITIYAMGWYRQAPGKERELVATISGRAGRTYYADSVKGRFTISRDNAKNTVYLQMNSLKPEDTAVYYCNAGQWRYPGLYYYWGQGTQVTVSS”, the “polyreactivity (PSR sort gate)” value was “high polyreactivity”.

As for “QVQLVESGGGLVQAGGSLRLSCAASGFTITRYAMGWYRQAPGKERELVARITGRGGGTFYADSVKGRFTISRDNAKNTVYLQMNSLKPEDTAVYYCNTDYGSSYNYWGQGTQVTVSS”, the “polyreactivity (PSR sort gate)” value is listed as “high polyreactivity”.
